From article PMC4877171 (Chemical research in toxicology, 2015)
One block for each molecule: values may come before it.

How the values were obtained:
Assay in all cases: cross-linking
[1] = target: Human recombinant TrxR1 mutant enzyme (Sec498Cys) (human) (UniProt Q16881)
[2] = target: T1, purified rat cytosolic TrxR (rat, UniProt O89049 1-499, selenocysteine at 498)
T1 sequence (looked up): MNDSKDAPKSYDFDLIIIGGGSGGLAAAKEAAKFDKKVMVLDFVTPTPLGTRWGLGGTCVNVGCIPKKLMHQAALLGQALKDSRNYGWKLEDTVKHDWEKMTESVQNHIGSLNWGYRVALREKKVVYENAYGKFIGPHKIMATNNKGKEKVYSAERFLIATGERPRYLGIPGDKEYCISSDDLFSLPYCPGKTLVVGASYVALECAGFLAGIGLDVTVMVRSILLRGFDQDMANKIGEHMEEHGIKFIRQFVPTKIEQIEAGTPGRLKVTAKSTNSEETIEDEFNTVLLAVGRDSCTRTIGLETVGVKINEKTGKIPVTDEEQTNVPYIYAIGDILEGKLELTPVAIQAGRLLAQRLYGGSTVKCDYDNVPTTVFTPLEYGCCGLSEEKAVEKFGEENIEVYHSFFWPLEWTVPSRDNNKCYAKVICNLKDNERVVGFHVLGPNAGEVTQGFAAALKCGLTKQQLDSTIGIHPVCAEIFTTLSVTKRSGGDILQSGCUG

cross-linking = target: the molecule itself

- stoichiometry N [1]: 2
Molecule: Human recombinant TrxR1 mutant enzyme (Sec498Cys) (from UniProt Q16881-5 1-499)

- binding result [2]: binds
B1: recombinant human Trx1 (natural protein)
chain: MVKQIESKTAFQEALDAAGDKLVVVDFSATWCGPCKMIKPFFHSLSEKYSNVIFLEVDVDDCQDVASECEVKCMPTFQFFKKGQKVGEFSGANKEKLEATINELV
- stoichiometry N (cross-linking): 2
